Data on one substance can be found in PMC3552960.

Assay [1] has as its target CCR5 Thr^2.56(82)Lys/Arg^6.32(225)Gln double-mutant receptor (human) (UniProt P51681).
Assay [2] addresses CCR5 Thr^2.56(82)Lys mutant receptor (human) (UniProt P51681).
For assay [3], the target named is CCR5 Thr^2.56(82)Pro/Arg^6.32(225)Gln double-mutant receptor (human) (UniProt P51681).
Assay [4] addresses wild type human CCR5 chemokine receptor (human) (UniProt P51681).
Assay [5] has as its target CCR5 Thr^2.56(82)Pro mutant receptor (human) (UniProt P51681).

In the case of “HIV-1C Du151 gp150 envelope glycoprotein (Env), carboxy-terminally truncated (natural protein)”, the Env-directed cell fusion (luciferase) on HOS-CD4-Luc cells; maximum fusion in assay [1] was 16.8 % wild type; in assay [2], 4.6 % wild type; in assay [3] it was 135 % wild type; in assay [5] it was 135 % wild type. Also, the Env-directed cell fusion (luciferase) on HOS-CD4-Luc cells; maximum fusion efficiency (fusion coefficient) (fusion coefficient) in assay [1] was 1.9; in assay [2], 0.84; in assay [3], 18.8; in assay [5], 16.5. The same substance came in with an Env-directed cell fusion (luciferase) on HOS-CD4-Luc cells; maximum fusion efficiency (fusion coefficient: luciferase activity divided by mean fluorescence) (fusion coefficient) in assay [4] of 11.8.
